{"source": "patent US20240026028A1", "about": "(JIANGSU HENGRUI PHARMACEUTICALS, published 2024)", "key": {"[1]": {"biological_target": "T1, HER3 protein (free, coated on the ELISA plate) (UniProt P21860 20-643, limits assumed)", "T1 construct": "also called free HER3 protein", "T1 sequence (P21860 20-643 limits assumed)": "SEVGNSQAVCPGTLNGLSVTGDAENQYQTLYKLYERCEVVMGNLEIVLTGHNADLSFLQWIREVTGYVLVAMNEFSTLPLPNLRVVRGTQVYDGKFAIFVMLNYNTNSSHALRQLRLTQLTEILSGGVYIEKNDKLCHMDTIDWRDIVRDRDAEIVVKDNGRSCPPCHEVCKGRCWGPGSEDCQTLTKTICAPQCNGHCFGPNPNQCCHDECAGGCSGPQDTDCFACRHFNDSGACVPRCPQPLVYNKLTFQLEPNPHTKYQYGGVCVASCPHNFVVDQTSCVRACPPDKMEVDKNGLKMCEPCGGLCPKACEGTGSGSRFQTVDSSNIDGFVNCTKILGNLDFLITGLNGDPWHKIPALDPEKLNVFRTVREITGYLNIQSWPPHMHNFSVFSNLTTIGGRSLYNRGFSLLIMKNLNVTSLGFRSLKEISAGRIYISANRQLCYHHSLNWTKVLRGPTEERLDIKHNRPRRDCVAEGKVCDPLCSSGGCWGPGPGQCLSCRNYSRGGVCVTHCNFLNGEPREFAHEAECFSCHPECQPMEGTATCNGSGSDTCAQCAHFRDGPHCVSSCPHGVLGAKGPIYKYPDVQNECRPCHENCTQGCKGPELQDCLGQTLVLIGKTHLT", "assay": "ELISA, HER3 protein coated on the plate, antibody titrated", "description": "HER3 protein was diluted to 1 μg/mL with pH 7.4 PBS buffer (Shanghai BasalMedia Technologies Co., LTD., B320) and added to a 96-well microplate at 100 μL/well. The plate was incubated at 4° C. overnight. After the liquid was discarded, 300 μL of 5% skim milk (BD, 232100) diluted with PBS was added to each well for blocking, and the plate was incubated at 37° C. for 2 h. After the blocking was completed, the blocking solution was discarded; after the plate was washed 3 times with PBST buffer (pH 7.4 PBS containing 0.1% tween-20), 100 μL of a gradient diluted antibody solution was added to each well, and the plate was incubated at 37° C. for 1 h. After the incubation was completed, the plate was washed 3 times with PBST buffer, and 100 μL of 1:8000 diluted Mouse Anti-HuMan IgG (H+L) (Jackson ImmunoResearch, 209-035-088) was added to each well. The plate was incubated at 37° C. for 1 h. After the plate was washed 3 times with PBST buffer, 100 μL of TMB chromogenic substrate (KPL, 5120-0077) was added to each well, and the plate was incubated at room temperature for 10-15 min. The reaction was terminated by adding 50 μL of 1 M H₂SO₄ to each well. The absorbance readings at 450 nm were taken on a microplate reader, and the binding curves of the antibodies to antigen were fitted with software, as shown in FIG. 1."}, "[2]": {"biological_target": "T2, HER3 expressed by MCF7 cells (human, UniProt P21860 20-1342)", "T2 construct": "whole, on cells; Endogenous HER3 on MCF7 cells; also called cells expressing HER3 protein", "T2 sequence (P21860 20-1342)": "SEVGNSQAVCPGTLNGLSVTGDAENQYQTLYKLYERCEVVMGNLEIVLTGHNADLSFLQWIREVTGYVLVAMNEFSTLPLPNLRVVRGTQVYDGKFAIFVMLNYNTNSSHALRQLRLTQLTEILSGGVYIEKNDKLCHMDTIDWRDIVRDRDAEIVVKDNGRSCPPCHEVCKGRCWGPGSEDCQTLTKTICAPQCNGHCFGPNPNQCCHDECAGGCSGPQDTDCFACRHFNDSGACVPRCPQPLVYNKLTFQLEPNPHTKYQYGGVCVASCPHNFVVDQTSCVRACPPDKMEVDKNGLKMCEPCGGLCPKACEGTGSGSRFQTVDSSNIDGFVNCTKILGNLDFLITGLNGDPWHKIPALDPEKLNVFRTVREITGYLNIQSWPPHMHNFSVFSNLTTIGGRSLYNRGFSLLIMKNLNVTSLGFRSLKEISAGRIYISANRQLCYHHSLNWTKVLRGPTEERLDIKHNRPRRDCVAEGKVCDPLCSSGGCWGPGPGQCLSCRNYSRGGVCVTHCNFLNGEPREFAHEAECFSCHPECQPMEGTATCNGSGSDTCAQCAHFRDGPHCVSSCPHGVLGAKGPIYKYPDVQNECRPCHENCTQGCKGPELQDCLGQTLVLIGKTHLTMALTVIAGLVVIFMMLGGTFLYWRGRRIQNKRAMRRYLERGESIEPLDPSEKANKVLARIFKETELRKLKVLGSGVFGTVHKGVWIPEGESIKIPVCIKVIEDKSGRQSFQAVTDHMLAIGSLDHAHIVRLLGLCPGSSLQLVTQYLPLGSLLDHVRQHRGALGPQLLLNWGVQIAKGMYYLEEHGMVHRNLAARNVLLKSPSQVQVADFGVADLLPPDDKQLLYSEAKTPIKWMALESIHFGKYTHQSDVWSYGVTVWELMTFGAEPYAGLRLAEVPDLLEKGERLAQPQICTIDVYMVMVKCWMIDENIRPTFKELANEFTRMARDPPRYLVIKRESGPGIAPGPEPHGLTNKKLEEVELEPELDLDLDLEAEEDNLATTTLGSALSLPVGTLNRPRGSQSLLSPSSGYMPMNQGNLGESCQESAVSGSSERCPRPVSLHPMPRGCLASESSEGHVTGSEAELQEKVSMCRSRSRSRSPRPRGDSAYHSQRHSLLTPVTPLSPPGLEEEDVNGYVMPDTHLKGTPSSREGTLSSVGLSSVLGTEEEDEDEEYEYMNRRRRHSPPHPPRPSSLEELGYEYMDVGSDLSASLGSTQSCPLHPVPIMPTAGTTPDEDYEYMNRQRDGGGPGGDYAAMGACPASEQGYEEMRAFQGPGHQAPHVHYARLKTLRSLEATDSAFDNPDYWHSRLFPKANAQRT", "assay": "flow cytometry on MCF7 cells, geometric mean fluorescence", "description": "MCF7 cells (ATCC, HTB-22) were suspended in FACS buffer (2% fetal bovine serum (Gibco, 10099141) pH 7.4 PBS (Sigma, P4417-100TAB)) to give a 1×10⁶ cells/mL cell suspension, which was then added to a 96-well round-bottom plate at 100 μL/well. After centrifugation and removal of the supernatant, the test antibody that was diluted with FACS buffer to different concentrations was added at 50 μL/well. The plate was incubated in the dark in a 4° C. refrigerator for 1 h. The plate was washed 3 times with FACS buffer by centrifugation at 300 g, and Alexa Fluor 488 Goat anti-HuMan IgG (H+L) (invitrogen, A-11013) at working concentration was then added. The plate was incubated in the dark in a 4° C. refrigerator for 40 min. The plate was washed 3 times with FACS buffer by centrifugation at 300 g and tested on a BD FACSCantoII flow cytometer for geometric mean fluorescence intensity."}, "[3]": {"biological_target": "HER3 recombinantly expressed on CHO-K1 cells (human, UniProt P21860 20-643)", "sequence (P21860 20-643)": "as the sequence (P21860 20-643 limits assumed) above", "assay": "cell-based or functional assay"}}, "data": [{"binder": "fully human antibody molecule HER3-29 (antibody, human IgG1, kappa, V domains shown, Human IgG1 / kappa; From a fully human natural phage library, expressed in HEK293 and Expi-CHO-S cells; also called antibody HER3-29) VH: QVQLVQSGGGLVQPGRSLRLSCAASGFTFDDYAMHWVRQAPGKGLEWVSGISWNSGSIGYADSVKGRFTISRDNAKNSLYLQMNSLRAEDTALYYCAKEGLPGLDYWGQGTLVTVSS VL: DIQMTQSPSSLSASIGDRATITCRASQHVGTYLNWYQQKPGKTPKLLISGAANLQSGVPSRFSGSGSGTDFTLTISSLQPEDFATYYCQQSYNTPPFSFGQGTKVEIKR", "values": [{"measurement": "EC50", "setting": "[1]", "result": 0.14, "unit": "nM"}, {"measurement": "EC50", "setting": "[2]", "result": 0.057, "unit": "nM"}, {"measurement": "IC50 (nM) (DT3C antibody endocytosis assay, cell killing)", "setting": "[3]", "result": 0.51, "unit": "nM"}]}, {"binder": "positive control antibody U3 (antibody, human IgG1, kappa, V domains shown, also called U1-59 (WO2007077028A2)) VH: QVQLQQWGAGLLKPSETLSLTCAVYGGSFSGYYWSWIRQPPGKGLEWIGEINHSGSTNYNPSLKSRVTISVETSKNQFSLKLSSVTAADTAVYYCARDKWTWYFDLWGRGTLVTVSS VL: not shown", "values": [{"measurement": "EC50", "setting": "[1]", "result": 0.56, "unit": "nM"}, {"measurement": "EC50", "setting": "[2]", "result": 0.249, "unit": "nM"}, {"measurement": "IC50 (nM) (DT3C antibody endocytosis assay, cell killing)", "setting": "[3]", "result": 2.81, "unit": "nM"}]}]}
